According to paper PMC4027202:

Key:
[1] = target: T1, Toscana virus nucleoprotein N (Toscana virus, UniProt P21701 1-253); experiment: ITC; n=0.49; ITC: 20 mM Tris pH 7.5, 150 mM NaCl, 8 C; 400 uM RNA titrated into 30 uM apo N; details: protein: recombinant; tags: N-terminal His6; chain copies: 6; single strand
T1 sequence: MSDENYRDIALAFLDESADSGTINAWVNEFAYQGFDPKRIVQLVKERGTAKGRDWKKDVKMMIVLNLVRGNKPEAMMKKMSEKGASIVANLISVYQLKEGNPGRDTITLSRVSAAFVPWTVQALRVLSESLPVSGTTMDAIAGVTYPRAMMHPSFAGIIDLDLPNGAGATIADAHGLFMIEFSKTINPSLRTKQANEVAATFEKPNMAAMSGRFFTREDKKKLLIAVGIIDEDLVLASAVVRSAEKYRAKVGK

RVFV nucleoprotein N = target: T2, RVFV nucleoprotein N (Rift Valley fever virus, UniProt D3K5I7 1-245); experiment: ITC; n=0.70; main text gives 420 nM; ITC: 20 mM Tris pH 7.5, 150 mM NaCl, 8 C; […]; details: protein: recombinant; single strand
T2 sequence: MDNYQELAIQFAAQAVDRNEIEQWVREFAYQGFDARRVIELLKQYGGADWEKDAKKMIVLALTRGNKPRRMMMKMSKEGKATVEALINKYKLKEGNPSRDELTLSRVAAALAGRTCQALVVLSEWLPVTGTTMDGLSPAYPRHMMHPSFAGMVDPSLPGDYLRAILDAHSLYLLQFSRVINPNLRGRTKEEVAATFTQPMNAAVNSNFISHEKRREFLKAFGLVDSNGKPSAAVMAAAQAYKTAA

[2] = target: T1, Toscana virus nucleoprotein N; experiment: ITC; n=0.50; ITC: 20 mM Tris pH 7.5, 150 mM NaCl, 8 C; 400 uM RNA titrated into 30 uM apo N; details: protein: recombinant; tags: N-terminal His6; chain copies: 6; single strand
[3] = target: the molecule itself; experiment: crystal structure; apo (RNA-free) N; 6.5% PEG 3350, 0.1-M sodium malonate, pH 4.5-5.2; space group P6, 12 molecules in the asymmetric unit, 3.3 Å
[4] = target: the molecule itself; experiment: crystal structure; N reconstituted with 9-mer RNA oligo1 (UGUGUUUCU); 11% PEG 3350, 0.1-M sodium malonate, pH 4.5-5.2; space group P1, 24 N and 12 RNA in the asymmetric unit, 2.6 Å
[5] = target: T1, Toscana virus nucleoprotein N; experiment: ITC; n=0.51; ITC: 20 mM Tris pH 7.5, 150 mM NaCl, 8 C; 400 uM RNA titrated into 30 uM apo N; details: protein: recombinant; tags: N-terminal His6; chain copies: 6; single strand
[6] = target: T1, Toscana virus nucleoprotein N; experiment: ITC; n=0.40; ITC: 20 mM Tris pH 7.5, 150 mM NaCl, 8 C; 400 uM RNA titrated into 30 uM apo N; details: protein: recombinant; tags: N-terminal His6; chain copies: 6; single strand
[7] = target: T1, Toscana virus nucleoprotein N; experiment: ITC; n=0.52; ITC: 20 mM Tris pH 7.5, 150 mM NaCl, 8 C; 400 uM RNA titrated into 30 uM apo N; details: protein: recombinant; tags: N-terminal His6; chain copies: 6; single strand
[8] = target: T1, Toscana virus nucleoprotein N; experiment: ITC; n=0.43; ITC: 20 mM Tris pH 7.5, 150 mM NaCl, 8 C; 400 uM RNA titrated into 30 uM apo N; details: protein: recombinant; tags: N-terminal His6; chain copies: 6; single strand

Binder: UAUGUUUCU (ssRNA) [oligo4 (G2A mutant of oligo1)]
- Kd [1]: 290 ± 40 nM

Binder: UGUGUUUCU (ssRNA) [oligo1 (reverted 3' consensus 9-mer)]
- Kd (RVFV nucleoprotein N): 400 ± 100 nM
- Kd [1]: 260 ± 20 nM

Binder: UGUGUU (ssRNA) [oligo8 (6-mer from oligo1)]
- Kd [2]: 8000 ± 900 nM

B1: Toscana virus nucleoprotein N (natural protein)
chain: MSDENYRDIALAFLDESADSGTINAWVNEFAYQGFDPKRIVQLVKERGTAKGRDWKKDVKMMIVLNLVRGNKPEAMMKKMSEKGASIVANLISVYQLKEGNPGRDTITLSRVSAAFVPWTVQALRVLSESLPVSGTTMDAIAGVTYPRAMMHPSFAGIIDLDLPNGAGATIADAHGLFMIEFSKTINPSLRTKQANEVAATFEKPNMAAMSGRFFTREDKKKLLIAVGIIDEDLVLASAVVRSAEKYRAKVGK
notes: Hexameric ring in both crystal forms
- stoichiometry N [3]: 6
- stoichiometry N [4]: 6

Binder: UGUGUUUC (ssRNA) [oligo6 (8-mer from oligo1)]
- Kd [5]: 710 ± 30 nM

Binder: UUUUUUUUU (ssRNA) [oligo5 (polyU 9-mer)]
- Kd [6]: 360 ± 40 nM

Binder: UGUGUUU (ssRNA) [oligo7 (7-mer from oligo1)]
- Kd [7]: 2700 ± 200 nM

Binder: UCUUUGUGU (ssRNA) [oligo2 (3' genomic consensus)]
- Kd [8]: 560 ± 70 nM
